The text below walks through data of patent publication US20040156842A1 (ZymoGenetics, published 2004).

Read-outs that look alike come from different tables or passages of the source.

Experiment [1] has as its target Zven1 receptor on Wky12-22 cells (rat). The experiment can be described thus: saturation binding of I125-radiolabeled Zven1 to Wky12-22 cell monolayers at 4 C, two-site nonlinear regression; high affinity site.
Experiment [2] shares this target. The experiment can be described thus: saturation binding of I125-radiolabeled Zven1 to Wky12-22 cell monolayers at 4 C, two-site nonlinear regression; low affinity site.
Experiment [3] concerns the target GPCR73a receptor (Homo sapiens (Human)) (UniProt Q8TCW9). Kind of experiment: cell-based or functional assay.
The target of experiment [4] is Zven1 receptor on Wky12-22 cells (rat). The experiment can be described thus: cell-based or functional assay.
Experiment [5] concerns the target GPCR73b receptor (Homo sapiens (Human)) (UniProt Q8NFJ6). The experiment can be described thus: cell-based or functional assay.
Experiment [6] shares this target. Kind of experiment: cell-based or functional assay. The source holds these as a separate data set.
In experiment [7] the target is GPCR73a receptor (Homo sapiens (Human)) (UniProt Q8TCW9). Kind of experiment: cell-based or functional assay. This is another data set of the same source.
Sequence of GPCR73a receptor (Homo sapiens (Human)) (Q8TCW9 whole entry): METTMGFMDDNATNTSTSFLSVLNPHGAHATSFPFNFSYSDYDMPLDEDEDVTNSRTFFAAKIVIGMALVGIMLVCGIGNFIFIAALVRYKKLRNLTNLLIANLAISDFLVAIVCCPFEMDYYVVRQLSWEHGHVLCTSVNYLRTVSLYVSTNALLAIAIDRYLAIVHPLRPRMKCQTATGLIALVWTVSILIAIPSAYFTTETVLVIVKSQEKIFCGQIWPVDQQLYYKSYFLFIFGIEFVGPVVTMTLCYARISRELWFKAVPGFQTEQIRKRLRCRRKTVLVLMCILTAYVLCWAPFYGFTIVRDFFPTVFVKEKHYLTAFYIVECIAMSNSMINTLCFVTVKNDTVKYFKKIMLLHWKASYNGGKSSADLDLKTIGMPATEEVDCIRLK
Experiment [8] has as its target T1, GPCR73b receptor (Homo sapiens (Human), UniProt Q8NFJ6 1-384). The experiment can be described thus: cell-based or functional assay.
In experiment [9] the target is T2, GPCR73a receptor (Homo sapiens (Human), UniProt Q8TCW9 1-393). Kind of experiment: cell-based or functional assay.
T2 sequence (Q8TCW9 whole entry): as above
In experiment [10] the target is T2, GPCR73a receptor. The experiment can be described thus: cell-based or functional assay. This is another data set of the same source.
Experiment [11] concerns the target T1, GPCR73b receptor. Kind of experiment: cell-based or functional assay. The source holds these as a separate data set.

Sequence of GPCR73b receptor (Homo sapiens (Human)) (Q8NFJ6 whole entry): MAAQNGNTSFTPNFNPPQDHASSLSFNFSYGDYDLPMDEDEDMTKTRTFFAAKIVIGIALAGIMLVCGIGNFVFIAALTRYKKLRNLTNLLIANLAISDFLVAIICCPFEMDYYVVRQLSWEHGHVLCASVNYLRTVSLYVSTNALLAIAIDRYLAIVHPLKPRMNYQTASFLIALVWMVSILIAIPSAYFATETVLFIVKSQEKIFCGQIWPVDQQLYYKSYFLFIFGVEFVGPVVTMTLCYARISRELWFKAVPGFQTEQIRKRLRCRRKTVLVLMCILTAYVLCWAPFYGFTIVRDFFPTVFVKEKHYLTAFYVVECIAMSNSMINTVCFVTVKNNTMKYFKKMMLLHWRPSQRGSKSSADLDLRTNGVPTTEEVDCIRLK
T1 sequence (Q8NFJ6 whole entry): as above

B1: Zven1 protein produced in baculovirus with a C-terminal Glu-Glu tag (ligand)
chain: AVITGACDKDSQCGGGMCCAVSIWVKSIRICTPMGKLGDSCHPLTRKVPFFGRRMHHTCPCLPGLACLRTSFNRFICLAQKGLEYMPMD
A word on the Kd: it is the equilibrium constant for the complex coming apart. On to B1, for which, in [1], the Bmax (fmol bound/10^6 cells) came out at 350 and the Kd was determined as 1.5 nM. In addition, in experiment [2], the Bmax (fmol bound/10^6 cells) amounted to 1020 and the Kd is 31 nM. For the same molecule, in experiment [3], the SRE luciferase fold-induction at 1 ng/ml (fold-induction) worked out at 2.5, the SRE luciferase fold-induction at 3.2 ng/ml (fold-induction) stood at 7.1, the SRE luciferase fold-induction at 10 ng/ml (fold-induction) was determined as 13.1 and the SRE luciferase fold-induction at 32 ng/ml (fold-induction) was determined as 18.7. Further, the SRE luciferase fold-induction at 100 ng/ml (fold-induction) in experiment [3] turned out to be 20.5. The molecule further showed an ERK-Map kinase activity in Wky12-22 cells, EC50 in experiment [4] of 0.5 nM.

B2: Heated Zven1 (Baculovirus-expressed Zven1 heated at 56° C. for 30 minutes) (ligand)
chain: AVITGACDKDSQCGGGMCCAVSIWVKSIRICTPMGKLGDSCHPLTRKVPFFGRRMHHTCPCLPGLACLRTSFNRFICLAQKGLEYMPMD
For B2, in experiment [3], the SRE luciferase fold-induction at 1 ng/ml (fold-induction) came to 1.8, the SRE luciferase fold-induction at 3.2 ng/ml (fold-induction) is 3.7, the SRE luciferase fold-induction at 10 ng/ml (fold-induction) amounted to 10 and the SRE luciferase fold-induction at 32 ng/ml (fold-induction) came out at 14.8. Moreover, the SRE luciferase fold-induction at 100 ng/ml (fold-induction) in experiment [3] amounted to 18.6.

B3: Zven2 ("endocrine-gland-derived vascular endothelial growth factor") protein purchased from Peprotech, Inc. (ligand)
chain: AVITGACERDVQCGAGTCCAISLWLRGLRMCTPLGREGEECHPGSHKVPFFRKRKHHTCPCLPNLLCSRFPDGRYRCSMDLKNINF
For the molecule B3, in [3], the SRE luciferase fold-induction at 1 ng/ml (fold-induction) is 1.2, the SRE luciferase fold-induction at 3.2 ng/ml (fold-induction) was determined as 1.6, the SRE luciferase fold-induction at 10 ng/ml (fold-induction) was found to be 2.5 and the SRE luciferase fold-induction at 32 ng/ml (fold-induction) stood at 5.8. Further, in experiment [3], the SRE luciferase fold-induction at 100 ng/ml (fold-induction) was found to be 11.4, the SRE luciferase fold-induction at 320 ng/ml (fold-induction) was 24.4 and the SRE luciferase fold-induction at 1000 ng/ml (fold-induction) was 20. Further, in experiment [5], the SRE luciferase fold-induction at 1 ng/ml (fold-induction) amounted to 1.1, the SRE luciferase fold-induction at 3.2 ng/ml (fold-induction) worked out at 1.3, the SRE luciferase fold-induction at 10 ng/ml (fold-induction) was 1.8 and the SRE luciferase fold-induction at 32 ng/ml (fold-induction) came out at 2.8. In addition, in experiment [5], the SRE luciferase fold-induction at 100 ng/ml (fold-induction) is 5.6, the SRE luciferase fold-induction at 320 ng/ml (fold-induction) turned out to be 8.3 and the SRE luciferase fold-induction at 1000 ng/ml (fold-induction) amounted to 8.4. For the same molecule, in experiment [6], the SRE luciferase fold-induction at 3.2 ng/ml (fold-induction) is 1.4, the SRE luciferase fold-induction at 32 ng/ml (fold-induction) turned out to be 2.7, the SRE luciferase fold-induction at 100 ng/ml (fold-induction) is 4.1 and the SRE luciferase fold-induction at 320 ng/ml (fold-induction) is 5.8. Moreover, the SRE luciferase fold-induction at 1000 ng/ml (fold-induction) in [6] worked out at 6.1. In experiment [7], the SRE luciferase fold-induction at 1 ng/ml (fold-induction) was 0.95, the SRE luciferase fold-induction at 3.2 ng/ml (fold-induction) stood at 1.3, the SRE luciferase fold-induction at 10 ng/ml (fold-induction) was 2.6 and the SRE luciferase fold-induction at 32 ng/ml (fold-induction) is 7.2. Besides, in experiment [7], the SRE luciferase fold-induction at 320 ng/ml (fold-induction) turned out to be 20.5 and the SRE luciferase fold-induction at 1000 ng/ml (fold-induction) came out at 15.

B4: Zven1 (E. coli produced) (ligand)
chain: AVITGACDKDSQCGGGMCCAVSIWVKSIRICTPMGKLGDSCHPLTRKVPFFGRRMHHTCPCLPGLACLRTSFNRFICLAQK
For the molecule B4, in the experiment with GPCR73b receptor [8], the “SRE luciferase fold-induction at 1 ng/ml” value came to 0.7 fold-induction, the “SRE luciferase fold-induction at 3.2 ng/ml” value worked out at 1.3 fold-induction, the “SRE luciferase fold-induction at 10 ng/ml” value is 1.9 fold-induction and the “SRE luciferase fold-induction at 32 ng/ml” value was 3 fold-induction. For the same molecule, in the experiment with GPCR73b receptor [8], the “SRE luciferase fold-induction at 100 ng/ml” value worked out at 4.7 fold-induction, the “SRE luciferase fold-induction at 320 ng/ml” value was determined as 6.3 fold-induction and the “SRE luciferase fold-induction at 1000 ng/ml” value was 7.1 fold-induction. In the experiment with GPCR73a receptor [9], the “SRE luciferase fold-induction at 1 ng/ml” value was 1.9 fold-induction, the “SRE luciferase fold-induction at 3.2 ng/ml” value amounted to 4 fold-induction, the “SRE luciferase fold-induction at 10 ng/ml” value worked out at 8.4 fold-induction and the “SRE luciferase fold-induction at 32 ng/ml” value is 15 fold-induction. In the experiment with GPCR73a receptor [9], the “SRE luciferase fold-induction at 100 ng/ml” value came out at 19 fold-induction, the “SRE luciferase fold-induction at 320 ng/ml” value came out at 20.7 fold-induction and the “SRE luciferase fold-induction at 1000 ng/ml” value was found to be 17.8 fold-induction. In addition, in the experiment with GPCR73a receptor [10], the “SRE luciferase fold-induction at 1 ng/ml” value was 4.1 fold-induction, the “SRE luciferase fold-induction at 3.2 ng/ml” value stood at 7.6 fold-induction, the “SRE luciferase fold-induction at 10 ng/ml” value was determined as 10.2 fold-induction and the “SRE luciferase fold-induction at 32 ng/ml” value is 14.1 fold-induction. In addition, in the experiment with GPCR73a receptor [10], the “SRE luciferase fold-induction at 100 ng/ml” value turned out to be 17.6 fold-induction, the “SRE luciferase fold-induction at 320 ng/ml” value is 22 fold-induction and the “SRE luciferase fold-induction at 1000 ng/ml” value worked out at 13.9 fold-induction. In the experiment with GPCR73b receptor [11], the “SRE luciferase fold-induction at 1 ng/ml” value turned out to be 1 fold-induction, the “SRE luciferase fold-induction at 3.2 ng/ml” value is 1.2 fold-induction, the “SRE luciferase fold-induction at 10 ng/ml” value stood at 1.7 fold-induction and the “SRE luciferase fold-induction at 32 ng/ml” value amounted to 2.6 fold-induction. In addition, in the experiment with GPCR73b receptor [11], the “SRE luciferase fold-induction at 100 ng/ml” value came out at 4.4 fold-induction, the “SRE luciferase fold-induction at 320 ng/ml” value was 5.2 fold-induction and the “SRE luciferase fold-induction at 1000 ng/ml” value stood at 4.8 fold-induction.
